Tested on: peptide library, one residue held at a place counted from the S/T acceptor
Assay: relative phosphorylation of the sub-library (ratio to the mean residue at this position); higher = residue favoured
Settings: human
How it was run: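 In 384-well plates, purified recombinant kinases (human or orthologue constructs) were incubated for 90 min under kinase-specific conditions with 50 μM biotinylated degenerate peptide sub-libraries and 50 μM ATP spiked with γ-32P-ATP. Each sub-library fixed a single residue at one position around a central Ser/Thr. Relative sub-library phosphorylation, measured by phosphorimaging and densitometry of streptavidin membrane spots, is given as a ratio to the mean residue at that position.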

Chain of PRKAA2, construct: Full length (P54646 whole entry, looked up): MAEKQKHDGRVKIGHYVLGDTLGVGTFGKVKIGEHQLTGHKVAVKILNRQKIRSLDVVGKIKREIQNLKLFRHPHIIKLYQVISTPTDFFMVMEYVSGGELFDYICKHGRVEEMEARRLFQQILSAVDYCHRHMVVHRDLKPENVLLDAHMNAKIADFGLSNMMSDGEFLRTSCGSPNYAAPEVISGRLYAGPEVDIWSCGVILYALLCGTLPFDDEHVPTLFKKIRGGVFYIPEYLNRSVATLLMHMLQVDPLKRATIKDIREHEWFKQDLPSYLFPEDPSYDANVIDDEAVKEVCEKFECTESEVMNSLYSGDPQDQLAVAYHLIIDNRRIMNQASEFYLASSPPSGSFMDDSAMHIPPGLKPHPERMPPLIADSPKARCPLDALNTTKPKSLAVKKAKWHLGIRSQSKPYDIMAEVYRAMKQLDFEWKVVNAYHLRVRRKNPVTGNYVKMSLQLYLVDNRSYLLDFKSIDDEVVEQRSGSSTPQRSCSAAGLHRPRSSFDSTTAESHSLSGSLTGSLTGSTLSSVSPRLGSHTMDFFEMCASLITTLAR

With “PRKAA2, construct: Full length (from UniProt P54646)” the relative phosphorylation (A fixed, at +1) was 1.05, the relative phosphorylation (A fixed, at +2) was 1.53 and the relative phosphorylation (A fixed, at +3) was 0.803. The relative phosphorylation (A fixed, at +4) was 0.597, the relative phosphorylation (A fixed, at -1) was 1.14 and the relative phosphorylation (A fixed, at -2) was 1.34. The relative phosphorylation (A fixed, at -3) was 0.699, the relative phosphorylation (A fixed, at -4) was 1.19 and the relative phosphorylation (A fixed, at -5) was 0.889. It also gave a relative phosphorylation (D fixed, at +1) of 0.54, a relative phosphorylation (D fixed, at +2) of 0.575 and a relative phosphorylation (D fixed, at +3) of 1.53. The relative phosphorylation (D fixed, at +4) was 0.614, the relative phosphorylation (D fixed, at -1) was 0.593 and the relative phosphorylation (D fixed, at -2) was 0.42. For the same substance, the relative phosphorylation (D fixed, at -3) was 0.258, the relative phosphorylation (D fixed, at -4) was 0.419 and the relative phosphorylation (D fixed, at -5) was 0.336. For the same substance, the relative phosphorylation (E fixed, at +1) was 0.708, the relative phosphorylation (E fixed, at +2) was 0.492 and the relative phosphorylation (E fixed, at +3) was 0.805. The relative phosphorylation (E fixed, at +4) was 0.454, the relative phosphorylation (E fixed, at -1) was 0.495 and the relative phosphorylation (E fixed, at -2) was 0.427. For the same substance, the relative phosphorylation (E fixed, at -3) was 0.368, the relative phosphorylation (E fixed, at -4) was 0.546 and the relative phosphorylation (E fixed, at -5) was 0.308. The relative phosphorylation (F fixed, at +1) was 1.88, the relative phosphorylation (F fixed, at +2) was 0.855 and the relative phosphorylation (F fixed, at +3) was 1.01. The relative phosphorylation (F fixed, at +4) was 1.27, the relative phosphorylation (F fixed, at -1) was 0.734 and the relative phosphorylation (F fixed, at -2) was 0.655. For the same substance, the relative phosphorylation (F fixed, at -3) was 0.4, the relative phosphorylation (F fixed, at -4) was 0.67 and the relative phosphorylation (F fixed, at -5) was 1.3. It also gave a relative phosphorylation (G fixed, at +1) of 0.711, a relative phosphorylation (G fixed, at +2) of 0.724 and a relative phosphorylation (G fixed, at +3) of 0.933. It also gave a relative phosphorylation (G fixed, at +4) of 0.637, a relative phosphorylation (G fixed, at -1) of 1.38 and a relative phosphorylation (G fixed, at -2) of 0.933. For the same substance, the relative phosphorylation (G fixed, at -3) was 0.739, the relative phosphorylation (G fixed, at -4) was 1.13 and the relative phosphorylation (G fixed, at -5) was 0.815. It also gave a relative phosphorylation (H fixed, at +1) of 1.15, a relative phosphorylation (H fixed, at +2) of 1.48 and a relative phosphorylation (H fixed, at +3) of 2.39. The relative phosphorylation (H fixed, at +4) was 0.747, the relative phosphorylation (H fixed, at -1) was 1.12 and the relative phosphorylation (H fixed, at -2) was 1.18. For the same substance, the relative phosphorylation (H fixed, at -3) was 1.26, the relative phosphorylation (H fixed, at -4) was 1.26 and the relative phosphorylation (H fixed, at -5) was 0.8. For the same substance, the relative phosphorylation (I fixed, at +1) was 0.565, the relative phosphorylation (I fixed, at +2) was 1.19 and the relative phosphorylation (I fixed, at +3) was 0.531. The relative phosphorylation (I fixed, at +4) was 2.12, the relative phosphorylation (I fixed, at -1) was 0.339 and the relative phosphorylation (I fixed, at -2) was 0.925. For the same substance, the relative phosphorylation (I fixed, at -3) was 0.335, the relative phosphorylation (I fixed, at -4) was 0.577 and the relative phosphorylation (I fixed, at -5) was 1.42. It also gave a relative phosphorylation (K fixed, at +1) of 1.01, a relative phosphorylation (K fixed, at +2) of 0.689 and a relative phosphorylation (K fixed, at +3) of 1.01. The relative phosphorylation (K fixed, at +4) was 0.777, the relative phosphorylation (K fixed, at -1) was 1.9 and the relative phosphorylation (K fixed, at -2) was 1.62. The relative phosphorylation (K fixed, at -3) was 2.75, the relative phosphorylation (K fixed, at -4) was 2.22 and the relative phosphorylation (K fixed, at -5) was 1.27. It also gave a relative phosphorylation (L fixed, at +1) of 0.814, a relative phosphorylation (L fixed, at +2) of 1.29 and a relative phosphorylation (L fixed, at +3) of 0.677. For the same substance, the relative phosphorylation (L fixed, at +4) was 2.7, the relative phosphorylation (L fixed, at -1) was 0.714 and the relative phosphorylation (L fixed, at -2) was 0.548. The relative phosphorylation (L fixed, at -3) was 0.398, the relative phosphorylation (L fixed, at -4) was 0.692 and the relative phosphorylation (L fixed, at -5) was 1.64. For the same substance, the relative phosphorylation (M fixed, at +1) was 1.33, the relative phosphorylation (M fixed, at +2) was 0.833 and the relative phosphorylation (M fixed, at +3) was 0.693. For the same substance, the relative phosphorylation (M fixed, at +4) was 2.04, the relative phosphorylation (M fixed, at -1) was 0.978 and the relative phosphorylation (M fixed, at -2) was 0.575. It also gave a relative phosphorylation (M fixed, at -3) of 0.473, a relative phosphorylation (M fixed, at -4) of 0.928 and a relative phosphorylation (M fixed, at -5) of 1.51. It also gave a relative phosphorylation (N fixed, at +1) of 0.942, a relative phosphorylation (N fixed, at +2) of 1.18 and a relative phosphorylation (N fixed, at +3) of 1.69. For the same substance, the relative phosphorylation (N fixed, at +4) was 0.864, the relative phosphorylation (N fixed, at -1) was 1.16 and the relative phosphorylation (N fixed, at -2) was 1.93. It also gave a relative phosphorylation (N fixed, at -3) of 0.821, a relative phosphorylation (N fixed, at -4) of 0.801 and a relative phosphorylation (N fixed, at -5) of 0.684. For the same substance, the relative phosphorylation (P fixed, at +1) was 0.269, the relative phosphorylation (P fixed, at +2) was 1.37 and the relative phosphorylation (P fixed, at +3) was 0.41. For the same substance, the relative phosphorylation (P fixed, at +4) was 0.789, the relative phosphorylation (P fixed, at -1) was 1.51 and the relative phosphorylation (P fixed, at -2) was 0.826. It also gave a relative phosphorylation (P fixed, at -3) of 0.991, a relative phosphorylation (P fixed, at -4) of 1.31 and a relative phosphorylation (P fixed, at -5) of 0.964. The relative phosphorylation (Q fixed, at +1) was 1.41, the relative phosphorylation (Q fixed, at +2) was 1.03 and the relative phosphorylation (Q fixed, at +3) was 0.978. For the same substance, the relative phosphorylation (Q fixed, at +4) was 0.806, the relative phosphorylation (Q fixed, at -1) was 1.22 and the relative phosphorylation (Q fixed, at -2) was 0.981. For the same substance, the relative phosphorylation (Q fixed, at -3) was 0.851, the relative phosphorylation (Q fixed, at -4) was 0.874 and the relative phosphorylation (Q fixed, at -5) was 0.825. For the same substance, the relative phosphorylation (R fixed, at +1) was 1.23, the relative phosphorylation (R fixed, at +2) was 0.652 and the relative phosphorylation (R fixed, at +3) was 1.06. It also gave a relative phosphorylation (R fixed, at +4) of 0.618, a relative phosphorylation (R fixed, at -1) of 1.58 and a relative phosphorylation (R fixed, at -2) of 1.84. It also gave a relative phosphorylation (R fixed, at -3) of 5.14, a relative phosphorylation (R fixed, at -4) of 2.31 and a relative phosphorylation (R fixed, at -5) of 1.89. It also gave a relative phosphorylation (V fixed, at +1) of 0.779, a relative phosphorylation (V fixed, at +2) of 1.34 and a relative phosphorylation (V fixed, at +3) of 0.506. The relative phosphorylation (V fixed, at +4) was 0.876, the relative phosphorylation (V fixed, at -1) was 0.49 and the relative phosphorylation (V fixed, at -2) was 1.47. The relative phosphorylation (V fixed, at -3) was 0.365, the relative phosphorylation (V fixed, at -4) was 0.7 and the relative phosphorylation (V fixed, at -5) was 0.769. For the same substance, the relative phosphorylation (W fixed, at +1) was 1.35, the relative phosphorylation (W fixed, at +2) was 0.966 and the relative phosphorylation (W fixed, at +3) was 1.16. It also gave a relative phosphorylation (W fixed, at +4) of 0.617, a relative phosphorylation (W fixed, at -1) of 0.73 and a relative phosphorylation (W fixed, at -2) of 0.661. For the same substance, the relative phosphorylation (W fixed, at -3) was 0.559, the relative phosphorylation (W fixed, at -4) was 0.666 and the relative phosphorylation (W fixed, at -5) was 0.723. For the same substance, the relative phosphorylation (Y fixed, at +1) was 1.27, the relative phosphorylation (Y fixed, at +2) was 0.806 and the relative phosphorylation (Y fixed, at +3) was 0.808. The relative phosphorylation (Y fixed, at +4) was 0.479, the relative phosphorylation (Y fixed, at -1) was 0.903 and the relative phosphorylation (Y fixed, at -2) was 0.676. For the same substance, the relative phosphorylation (Y fixed, at -3) was 0.596, the relative phosphorylation (Y fixed, at -4) was 0.713 and the relative phosphorylation (Y fixed, at -5) was 0.854. The relative phosphorylation (pThr fixed, at +1) was 0.69, the relative phosphorylation (pThr fixed, at +2) was 0.503 and the relative phosphorylation (pThr fixed, at +3) was 0.35. It also gave a relative phosphorylation (pThr fixed, at +4) of 0.709, a relative phosphorylation (pThr fixed, at -1) of 0.324 and a relative phosphorylation (pThr fixed, at -2) of 0.504. For the same substance, the relative phosphorylation (pThr fixed, at -3) was 0.49, the relative phosphorylation (pThr fixed, at -4) was 0.644 and the relative phosphorylation (pThr fixed, at -5) was 0.588. The relative phosphorylation (pTyr fixed, at +1) was 0.649, the relative phosphorylation (pTyr fixed, at +2) was 0.452 and the relative phosphorylation (pTyr fixed, at +3) was 0.57. For the same substance, the relative phosphorylation (pTyr fixed, at +4) was 0.529, the relative phosphorylation (pTyr fixed, at -1) was 0.607 and the relative phosphorylation (pTyr fixed, at -2) was 0.533. The relative phosphorylation (pTyr fixed, at -3) was 0.471, the relative phosphorylation (pTyr fixed, at -4) was 0.475 and the relative phosphorylation (pTyr fixed, at -5) was 0.696.
